Measured values reported in publication PMC9879991, “Biomolecular condensates formed by designer minimalistic peptides” (Nature Communications, 2023).
No end group written: not given here.

Legend:
[1] = solution NMR, Trp1-Hα and Trp1-Hβ shifts at pH 6.0, 7.0, 7.5, 8.0, 9.0, Henderson-Hasselbach fit; error by Monte Carlo
Protocol: pKa values were determined by following the chemical shifts of Trp1-Hα and Trp1-Hβ at pH values of 6.0, 7.0, 7.5, 8.0 and
9.0. The 10 obtained chemical shifts were fitted to the Henderson-Hasselbach equation with the assumption that peak
position is a weighted average of the two end-point chemical shifts; optimization parameters were the two end-point shifts
(representing fully ionized and fully deionized forms of the N-terminal amino group of the peptide. Errors were determined
by Monte Carlo simulations with a measurement error of 0.01 ppm for all chemical shifts.

[2] = target: Nterm1 (position 1, -----WGRGRG); experiment: NMR; details: 300 K (general NMR methods statement; not restated for the titration), NaCl 0-0.2 M used in NMR samples, concentration for the pKa titration not given, 20 mM Tris (NMR methods), Free peptide in solution, disordered

Row | Molecule | pKa of the N-terminal amine group [1] | pKa [2]
1 | WGRGRGRGWPGVGF [WGR-3] | 7.49 ± 0.01 | –
2 | WGRGRGRGWY [WGR-4] | 7.37 ± 0.01 | –
3 | WGRGRGWPGVGY [WGR-5] | 7.51 ± 0.01 | –
4 | WGRGRGRGWPGVGY [WGR-1 designer LLPS peptide (synthetic construct)] | – | 7.50 ± 0.01
5 | WGRGRGRGWY [WGR-4 designer LLPS peptide (WGR-1 without the ELP motif) (synthetic construct; del10-13)] | – | 7.37 ± 0.01
6 | WGRGRGRGWPGVGF [WGR-3 designer LLPS peptide (Tyr14 to Phe variant of WGR-1) (synthetic construct; Y14F)] | – | 7.49 ± 0.01
7 | WGRGRGWPGVGY | – | 7.51 ± 0.01
